The values below come from publication doi:10.1101/2025.02.01.633781.

For this data set, the target named is FUS (recombinant, produced in-house) (UniProt P35637 1-526). Description: EMSA. On the technique in general: Mobility shift assays separate free from complexed probe on a gel.
Chain of FUS (recombinant, produced in-house) (P35637 whole entry): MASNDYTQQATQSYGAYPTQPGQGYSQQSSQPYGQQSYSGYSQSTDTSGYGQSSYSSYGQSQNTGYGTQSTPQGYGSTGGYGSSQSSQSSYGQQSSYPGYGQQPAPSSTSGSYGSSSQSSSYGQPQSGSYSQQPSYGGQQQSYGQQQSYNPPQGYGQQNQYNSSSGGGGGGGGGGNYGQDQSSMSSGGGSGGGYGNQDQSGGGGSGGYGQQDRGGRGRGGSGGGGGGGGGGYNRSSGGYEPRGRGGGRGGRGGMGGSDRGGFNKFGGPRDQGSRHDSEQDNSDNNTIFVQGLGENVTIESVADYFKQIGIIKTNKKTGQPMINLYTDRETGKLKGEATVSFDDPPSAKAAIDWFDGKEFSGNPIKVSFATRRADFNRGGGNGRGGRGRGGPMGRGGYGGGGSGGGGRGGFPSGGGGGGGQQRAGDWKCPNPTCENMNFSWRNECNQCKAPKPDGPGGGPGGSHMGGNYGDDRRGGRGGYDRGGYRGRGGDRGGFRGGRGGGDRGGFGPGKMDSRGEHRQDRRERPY

B1: 4xDRACH (ssRNA)
RNA: GGACUCGGACUUGGACUCUGGACUUUGGAC
In the case of B1, the binding result was “binds”.
